# Values joined by “and” are separate entries in the source; they are usually repeats but may differ in a detail not shown here. Equal entries are not always repeated.
# Target: SARS-CoV-2 RBD-hFc (SARS-CoV-2)
# Experiment: Luminex beads
row,Binder,binding result
1,"mAb10998 (antibody, V domains shown) VH: EVQLVESGGGLVHPGGSLRLSCAASGLTVSSNYMSWVRQAPGKGLEWVSVIYSGGSTYYADSVKGRFTISRHNSKNTLFLQMNSLRAEDTAVYYCARDRPITGTTLDVWGQGTTVTVSS VL: DIQMTQSPSSLFASVGDRVTITCRASQSISSYLNWYQQKPGKAPKLLIYAASSLQSGVPSRFSGSGSGTDFTLTISSLQPEDFAFYYCQQTYSTPPITFGQGTRLEIK",binds
2,"mAb10913 (antibody, V domains shown) VH: EVQLVESGGGLVQPGGSLRLSCAASGFTFRNYEMNWVRQAPGKGLEWVSYITSSGSTMYYADSVKGRFTISRDNAKNSLYLQMNSLRAEDTAVYYCARDGFYYYYAMDVWGQGTTVTVSS VL: QSVLTQPPSVSAAPGQKVTISCSGSSSNIGNNYVSWYQQLPGTAPKLLIYDNNKRPSGIPDRFSGSKSGTSATLGITGLQTGDEADYYCGTWDSSLSVGRVFGTGTKVTVLG [mAb10913, listing 1 of 2 here]",binds
3,"mAb11010 (antibody, V domains shown) VH: QVQLVESGGGVVQPGRSLRLSCAASGFTFSSYGMHWVRQAPGKGLEWVAVISYDGSYKYYADSVKGRFTISRDNSKNTLYLQMNSLRAEDTAVYYCAIDGGTVTTIFDYWGQGTLVTVSS VL: not shown",binds
4,"mAb11004 (antibody, V domains shown) VH: QVQLVESGGGVVQPGRSLRLSCVASGFTFSIYGMDWVRQAPGKGLEWVAVISYDGSNKYYADSVKGRFTISRDNSKNTLYLQMNSLRPEDTAVYYCAKDREAAADAFDIWGQGTMVTVSS VL: DIQMTQSPSSVSASVGDRVTITCRASQGISSWLAWYQQKPGKAPKLLIYAASSLHSGVPSRFSGSGSGTDFTLTISSLQPEDFATYYCQQANSFRLTFGGGTKVEIK",binds
5,"mAb10914 (antibody, V domains shown) VH: EVQLVESGGGLVQPGGSLRLSCAASGLIVSRNYMIWVRQAPGKGLEWVSVIYSGGSTFYADSVKGRFTISRHNSKNTLYLQMNSLRAEDTAVYYCARDLGTGGMDVWGQGTTVTVSS VL: DIQLTQSPSFLSASVGDRVTITCWASQGISSYLAWYQQKPGKAPKLLIYAASTLQSGVPSRFSGSGSGTEFTLTISSLQPEDFATYYCQQLNSYPLTFGGGTKVEIKR [mAb10914, listing 1 of 2 here]",binds
6,"mAb11006 (antibody, V domains shown) VH: EVQLVESGGGLVQPGGSLRLSCAASGFIVSRNYMSWVRQAPGKGLEWVSVIYSGGSTFYADSVKGRFTISRHNSKNTLYLQMNSLKAEDTAVYYCARELRGYFDYWGQGTLVTVSS VL: DIQLTQSPSFLSASVGDRVTITCWASQGISSYLAWYQQKPGKAPKLLIYAASTLQSGVPSRFSGSGSGTEFTLTISSLQPEDFATYYCQLLNSYPYTFGQGTKLEIK",binds
7,"mAb11008 (antibody, V domains shown) VH: EVQLVESGGGLVQPGGSLRLSCAASGFTVSSNYMTWVRQAPGKGLEWVSVIYSGGSTFYADSVKGRFTISRHNSENTLYLQMNSLRAEDTAVYYCARDLAAAGTDYWGQGALVTVSS VL: DIQLTQSPSFLSASVGDRVTITCWASQGISSYLAWYQQKPGKAPKLLIYAASTLQSGVPSRFSGSGSGTEFTLTISSLQPDDFATYYCQHLNSYLYTFGQGTKLEIK",binds
8,"mAb11002 (antibody, V domains shown) VH: EVQLVESGGGLVQPGGSLRLSCAASGFTVSSNYMSWVRQAPGKGLEWVSVIYSGGSTFYADSVKGRFTISRHNSKNTLYLQMNSLRAEDTAVYYCAREGYGMDVWGQGTTVTVSS VL: not shown",binds

# Target: receptor binding domain (RBD) portion of the SARS-CoV-2 Spike protein (amino acids Arg319-Phe541) ex (SARS-CoV-2)
# Experiment: not given
row,Binder,IC50
1,"mAb10932 (antibody, V domains shown) VH: EVQLVESGGGLVQSGGSLRLSCAASGLTVSSNYMSWVRQAPGKGLEWVSVIYSGGSTFYSDSVKGRFTISRHNSKNTLYLQMNSLRAEDTAVYYCARARGDAFDIWGQGTMVTVSS VL: not shown",0.373 nM
2,"mAb10930 (antibody, V domains shown) VH: EVQLVESGGGLVQPGRSLRLSCAASGFTFDDYAMYWVRQAPGKGLEWVSGISWNSGSIGYADSVKGRFTISRDNAKNSLYLQMNSLRAADTALYYCAKDKDWNSRGYYYYGMDVWGQGTTVTVSS VL: not shown",0.282 nM
3,"mAb10937 (antibody, V domains shown) VH: QITLKESGPTLVKPTQTLTLTCTFSGFSLSTNVVGVGWIRQPPGKALEWLALIYWNDDKRYSPSLKSRLTITKDTSKNQVVLTMTNMDPVDTATYYCAHGPTGDYFDYWGQGTLVTVSS VL: not shown",0.0649 nM
4,"mAb10936 (antibody, V domains shown) VH: QVQLVESGGGVVQPGRSLRLSCAASGFTFRNYGMHWVRQAPGKGLEWVSVIWYDGSNRYYADSVKGRFTISRDTSKNTLYLQMNSLRAEDTAVYYCARDPPITGTTGGDAFDIWGQGTMVTVSS VL: not shown",0.0875 nM and 0.071 nM
5,"mAb10913 (antibody, V domains shown) VH: EVQLVESGGGLVQPGGSLRLSCAASGFTFRNYEMNWVRQAPGKGLEWVSYITSSGSTMYYADSVKGRFTISRDNAKNSLYLQMNSLRAEDTAVYYCARDGFYYYYAMDVWGQGTTVTVSS VL: QSVLTQPPSVSAAPGQKVTISCSGSSSNIGNNYVSWYQQLPGTAPKLLIYDNNKRPSGIPDRFSGSKSGTSATLGITGLQTGDEADYYCGTWDSSLSVGRVFGTGTKVTVLG [mAb10913, listing 2 of 2 here]",0.217 nM
6,"mAb10939 (antibody, V domains shown) VH: EVQLVESGGGLVQPGGSLRLSCAASGLTVSSNYMNWVRQVPGKGLEWVSVIYSGGSKFYVDSVKGRFTISRHNSKNTLYLQMNSLRPEDTAVYYCTRDAQYYGMDVWGQGTTVTVSS VL: DIQMTQSPSSLSASVGDRVTITCRASQSISTYLHWYQQKPGEAPKLLIYAASSLQSGVPSRFSGSGSGTDFTLTISSLQPEDFATYYCQQSYSTPPEIFGQGTKLEIKR",0.175 nM and 0.263 nM
7,"mAb10914 (antibody, V domains shown) VH: EVQLVESGGGLVQPGGSLRLSCAASGLIVSRNYMIWVRQAPGKGLEWVSVIYSGGSTFYADSVKGRFTISRHNSKNTLYLQMNSLRAEDTAVYYCARDLGTGGMDVWGQGTTVTVSS VL: DIQLTQSPSFLSASVGDRVTITCWASQGISSYLAWYQQKPGKAPKLLIYAASTLQSGVPSRFSGSGSGTEFTLTISSLQPEDFATYYCQQLNSYPLTFGGGTKVEIKR [mAb10914, listing 2 of 2 here]",0.98 nM
8,"mAb10957 (antibody, V domains shown) VH: EVQLVESGGGLVQPGGSLRLSCAASGVTVSSNYMSWVRQAPGKGLEWVSVIYSGGSTFYADSVKGRFTISRDNSKNTLFLQMNSLRIEDTAVYYCARDLGPYGMDVWGQGTTVTVSS VL: DIQLTQSPSFLSASVGDRVTITCRASQGISSYLAWYQQKPGKAPKLLIYAASTLQSGVPSRFSGSGSGTQFILTISSLQPEDFATYYCQQLNSYPGFTFGPGTKVDIKR",0.169 nM
9,"mAb10956 (antibody, V domains shown) VH: EVQLVESGGGLVQPGGSLRLSCAASGLTVSSNYMSWVRQAPGKGLEWVSVIYSGGSTFYADSVKGRFTISRDNSKNTLYLQMNSLRAEDTAVYYCARDLIKYGMDVWGQGTTVTVSS VL: not shown",0.185 nM
10,"mAb10935 (antibody, V domains shown) VH: EVQLVESGGGLVQPGGSLRLSCAASGFTVSSNYMSWVRQAPGKGLEWVSLIYSGGSTYYADSVKGRFTISRHNSKNTLYLQMNSLRSEDTAVYYCARVPLGDYYYGMDVWGQGTTVTVSS VL: DIQMTQSPSSLSASVGDRVTITCQASQDINKYLNWYQQKPGKAPKLLIYDASNLETGVPSRFSGSGSGTDFTFTISSLQPEDIATYYCQQSDNLPLTFGGGTKVEIKR",0.102 nM and 0.0694 nM
11,"mAb10955 (antibody, V domains shown) VH: EVQLVESGGGLVQPGGSLRVSCAASGFTVSRNYMSWVRQAPGKGLEWVSVIYSGGSTFYADSVKGRFTISRDNSKNTLYLQMNSLRAEDTAIYYCARYIPRFDPWGQGTLVTVSS VL: DIQMTQSPSSLSASVGDRVTITCQASQDISNYLNWFQQKPGRAPKLLIYDASNLETGVPSRFSGSGSGTDFTFTISSLQPEDIATYYCQQYDNLPITFGQGTRLEIKR",0.141 nM
12,"mAb10938 (antibody, V domains shown) VH: EVQLVESGGGLVQPGGSLRLSCAVSGFTVSSNYMSWVRQAPGKGLEWVSLIYSGGSTFYADSVKGRFTISRHNSKNTLYLQMNSLRAEDTAVYYCAREGGYSYDYNYWGQGTLVTVSS VL: DIQMTQSPSSLSASVGDRVTITCQASQDIRNYLNWYQQKPGKAPKLLIYDASNLETGVPSRFSGIGSGTDFTFTISSLQPEDIATYYCQQYDNLPITFGQGTRLEIKR",0.275 nM
13,"mAb10954 (antibody, V domains shown) VH: EVQLVESGGGLVQPGGSLRLSCAASGITVSSNYMSWVRQAPGKGLEWVSLIYSGGSTYYADSVKGRFTISRDNSKNTLYLQMNSLRVEDTAVYYCARDHGMAAAGYNYWGQGTLVTVSS VL: DIQMTQSPSSLSASVGDRVTITCQASQDINKYLNWYQQKPGKAPKLLIYDASNLETGVPSRFSGSGSGTDFTFTINSLQPEDFATYFCQQYDNLPPAFGQGTKVEIKR",0.0711 nM
14,"mAb10920 (antibody, V domains shown) VH: QVQLVESGGGVVQPGRSLRLSCAASGFTFSYYGMHWVRQAPGKGLEWVAVIWYDGSNKFYADSVKGRFTISRDNSKNTLYLQMNSLRAEDTAVYYCAAARPGYYYGMDVWGQGTTVTVSS VL: DIQMTQSPSSLSASVGDRVTITCRASQGISNYLAWFQQKPGKAPNSLIYAASSLQRGVPSKFSGSGSGTDFTLTISSLQPEDFATYYCQQYNSYPRTFGQGTKVEIKR",0.338 nM and 0.139 nM
15,"mAb10923 (antibody, V domains shown) VH: QVQLVQSGAEVKKPGASVKVSCKASGYTFINYYIHWVRQAPGQGLEWMGWINPNSGGTNYAQKFQGRVTMTRDTSISTAYMELSRLRSDDTAVYYCAIITIFGVVTWFDPWGQGTLVTVSS VL: not shown",0.149 nM and 0.184 nM
16,"mAb10915 (antibody, V domains shown) VH: EVQLVESGGGLVQPGGSLRLSCAASGFTVSSNYMNWVRQAPGKGLEWVSVIYSGGSTFYADSVKGRFTISRHNSKNTLYLQMNSLRPEDTAVYYCARDLGGYFDYWGQGTLVTVSS VL: not shown",0.321 nM
17,"mAb10921 (antibody, V domains shown) VH: EVQLVESGGGLVQPGGSLRLSCAASGITVSSNYMSWVRQAPGKGLEWVSVIYSGGSTFYADSVKGRFTISRHNSKNTLYLQMNSLRAEDTAVYYCARERNFDAFDIWGQGTMVTVSS VL: DIQMTQSPSSVSASVGDRVTITCRASQGISSWLAWYQQKPGKAPKLLIYAASSLQSGVPSRFSGSGSGTDFTLTISSLQPEDFATYYCQQANSFPLFTFGPGTKVDIKR",0.433 nM and 0.507 nM

# Source: patent US20240043504A1 (published 2024)
